{"source": "patent US20040091974A1", "about": "(KIRIN BEER, published 2004)", "key": {"[1]": {"biological_target": "T1, 13-mer peptide, amino acids 61 to 73 of the HLA-DR β chain (DRB1*15011) (human)", "T1 peptide": "Ac-WNSQKDILEQARA-{cellulose membrane}", "assay": "SPOT 13-mer peptide array on cellulose membrane, chemiluminescence", "protocol": "(§1) The epitope of each antibody was analyzed by Western blotting in accordance with a conventional technique. In simple terms, a cellulose or PVDF membrane was blocked with Block Ace (Yukijirushi), etc., each antibody was allowed to react therewith at 1 μg/mL as a primary antibody and at 0.5 μg/mL as a secondary antibody using […], the HRP-labeled anti-human antibody (e.g., DAKO) was allowed to react therewith, and the chemiluminescence was detected using a chemiluminescent reagent (e.g., ECL Western blotting detection reagent, Amersham Bioscience) and a chemiluminescence detector (e.g., LAS-1000, Fuji Film).\n(§2) The subsequent reaction was carried out based on conventional Western blot analysis (see, for example, Reineke, U. et al., (2001), “Epitope mapping with synthetic peptides prepared by SPOT synthesis.” Antibody Engineering (Springer Lab Manual) Eds.: Kontermann/Dubel, 433459). In the analysis, LumilmagerTM (Boehringer-Mannheim) was used to represent the color intensity in each spot by numerical values."}, "SEQ ID NO 24": {"biological_target": "T2, SEQ ID NO 24 (human)", "T2 peptide": "Ac-WNSQKDFLEDRRA-{cellulose membrane}", "assay": "polymorphic 61-73 peptide spots, chemiluminescence", "protocol": "as §1\n(§3) The subsequent reaction was carried out based on conventional Western blot analysis (see, for example, Reineke, U. et al., (2001), “Epitope mapping with synthetic peptides prepared by SPOT synthesis.” Antibody Engineering (Springer Lab Manual) Eds.: Kontermann/Dubel, 433459). In the analysis, LumilmagerTM (Boehringer-Mannheim) was used to represent the color intensity in each spot by numerical values. […]"}, "SEQ ID NO 25": {"biological_target": "T3, SEQ ID NO 25 (human)", "T3 peptide": "Ac-WNSQKDFLERRRA-{cellulose membrane}", "assay": "polymorphic 61-73 peptide spots, chemiluminescence", "protocol": "as §1, §3"}, "SEQ ID NO 26": {"biological_target": "T4, SEQ ID NO 26 (human)", "T4 peptide": "Ac-WNSQKDFLEDERA-{cellulose membrane}", "assay": "polymorphic 61-73 peptide spots, chemiluminescence", "protocol": "as §1, §3"}, "SEQ ID NO 27": {"biological_target": "T5, SEQ ID NO 27 (human)", "T5 peptide": "Ac-WNSQKDFLEQARA-{cellulose membrane}", "assay": "polymorphic 61-73 peptide spots, chemiluminescence", "protocol": "as §1, §3"}, "SEQ ID NO 28": {"biological_target": "T6, SEQ ID NO 28 (human)", "T6 peptide": "Ac-WNSQKDILEDERA-{cellulose membrane}", "assay": "polymorphic 61-73 peptide spots, chemiluminescence", "protocol": "as §1, §3"}, "SEQ ID NO 29": {"biological_target": "T7, SEQ ID NO 29 (human)", "T7 peptide": "Ac-WNSQKDILEQKRG-{cellulose membrane}", "assay": "polymorphic 61-73 peptide spots, chemiluminescence", "protocol": "as §1, §3"}, "SEQ ID NO 30": {"biological_target": "T8, SEQ ID NO 30 (human)", "T8 peptide": "Ac-WNSQKDILEDRRA-{cellulose membrane}", "assay": "polymorphic 61-73 peptide spots, chemiluminescence", "protocol": "as §1, §3"}, "SEQ ID NO 31": {"biological_target": "T9, SEQ ID NO 31 (human)", "T9 peptide": "Ac-WNSQKDILEDRRG-{cellulose membrane}", "assay": "polymorphic 61-73 peptide spots, chemiluminescence", "protocol": "as §1, §3"}, "SEQ ID NO 32": {"biological_target": "T10, SEQ ID NO 32 (human)", "T10 peptide": "Ac-WNSQKDILEDKRA-{cellulose membrane}", "assay": "polymorphic 61-73 peptide spots, chemiluminescence", "protocol": "as §1, §3"}, "SEQ ID NO 33": {"biological_target": "T11, SEQ ID NO 33 (human)", "T11 peptide": "Ac-WNSQKDILEQARA-{cellulose membrane}", "assay": "polymorphic 61-73 peptide spots, chemiluminescence", "protocol": "as §1, §3"}, "SEQ ID NO 34": {"biological_target": "T12, SEQ ID NO 34 (human)", "T12 peptide": "Ac-WNSQKDLLEQRRA-{cellulose membrane}", "assay": "polymorphic 61-73 peptide spots, chemiluminescence", "protocol": "as §1, §3"}, "SEQ ID NO 35": {"biological_target": "T13, SEQ ID NO 35 (human)", "T13 peptide": "Ac-WNSQKDLLEQARA-{cellulose membrane}", "assay": "polymorphic 61-73 peptide spots, chemiluminescence", "protocol": "as §1, §3"}, "SEQ ID NO 36": {"biological_target": "T14, SEQ ID NO 36 (human)", "T14 peptide": "Ac-WNSQKDLLEQKRG-{cellulose membrane}", "assay": "polymorphic 61-73 peptide spots, chemiluminescence", "protocol": "as §1, §3"}, "SEQ ID NO 37": {"biological_target": "T15, SEQ ID NO 37 (human)", "T15 peptide": "Ac-WNSQKDLLEDRRA-{cellulose membrane}", "assay": "polymorphic 61-73 peptide spots, chemiluminescence", "protocol": "as §1, §3"}, "SEQ ID NO 38": {"biological_target": "T16, SEQ ID NO 38 (human)", "T16 peptide": "Ac-WNSQKDLLERRRA-{cellulose membrane}", "assay": "polymorphic 61-73 peptide spots, chemiluminescence", "protocol": "as §1, §3"}, "SEQ ID NO 39": {"biological_target": "T17, SEQ ID NO 39 (human)", "T17 peptide": "Ac-WNSQKDLLEDERA-{cellulose membrane}", "assay": "polymorphic 61-73 peptide spots, chemiluminescence", "protocol": "as §1, §3"}, "SEQ ID NO 40": {"biological_target": "T18, SEQ ID NO 40 (human)", "T18 construct": "The entry already carries the substitution", "T18 peptide": "Ac-WNSQKDALEQRRA-{cellulose membrane}", "assay": "alanine-substituted 61-73 peptide spots, chemiluminescence", "protocol": "as §1, §2\n(§4) Further, 12 peptides (SEQ ID Nos: 40 to 51) in which each amino acid has been substituted with alanine ([…] if it is originally alanine) were subjected to Western blotting under similar conditions. In the analysis, LAS2000 and ImageGauge analyzing software (Fuji Photo Film) were used to represent the color intensity in each spot by numerical values."}, "SEQ ID NO 41": {"biological_target": "T19, SEQ ID NO 41 (human)", "T19 construct": "The entry already carries the substitution", "T19 peptide": "Ac-WNSQKDLLEARRA-{cellulose membrane}", "assay": "alanine-substituted 61-73 peptide spots, chemiluminescence", "protocol": "as §1, §2, §4"}, "SEQ ID NO 42": {"biological_target": "T20, SEQ ID NO 42 (human)", "T20 construct": "The entry already carries the substitution", "T20 peptide": "Ac-WNSQKDLLEQARA-{cellulose membrane}", "assay": "alanine-substituted 61-73 peptide spots, chemiluminescence", "protocol": "as §1, §2, §4"}, "SEQ ID NO 43": {"biological_target": "T21, SEQ ID NO 43 (human)", "T21 construct": "The entry already carries the substitution", "T21 peptide": "Ac-WNSQKDLLEQRRG-{cellulose membrane}", "assay": "alanine-substituted 61-73 peptide spots, chemiluminescence", "protocol": "as §1, §2, §4"}, "SEQ ID NO 44": {"biological_target": "T22, SEQ ID NO 44 (human)", "T22 construct": "The entry already carries the substitution", "T22 peptide": "Ac-ANSQKDLLEQRRA-{cellulose membrane}", "assay": "alanine-substituted 61-73 peptide spots, chemiluminescence", "protocol": "as §1, §2, §4"}, "SEQ ID NO 45": {"biological_target": "T23, SEQ ID NO 45 (human)", "T23 construct": "The entry already carries the substitution", "T23 peptide": "Ac-WASQKDLLEQRRA-{cellulose membrane}", "assay": "alanine-substituted 61-73 peptide spots, chemiluminescence", "protocol": "as §1, §2, §4"}, "SEQ ID NO 46": {"biological_target": "T24, SEQ ID NO 46 (human)", "T24 construct": "The entry already carries the substitution", "T24 peptide": "Ac-WNAQKDLLEQRRA-{cellulose membrane}", "assay": "alanine-substituted 61-73 peptide spots, chemiluminescence", "protocol": "as §1, §2, §4"}, "SEQ ID NO 47": {"biological_target": "T25, SEQ ID NO 47 (human)", "T25 construct": "The entry already carries the substitution", "T25 peptide": "Ac-WNSAKDLLEQRRA-{cellulose membrane}", "assay": "alanine-substituted 61-73 peptide spots, chemiluminescence", "protocol": "as §1, §2, §4"}, "SEQ ID NO 48": {"biological_target": "T26, SEQ ID NO 48 (human)", "T26 construct": "The entry already carries the substitution", "T26 peptide": "Ac-WNSQADLLEQRRA-{cellulose membrane}", "assay": "alanine-substituted 61-73 peptide spots, chemiluminescence", "protocol": "as §1, §2, §4"}, "SEQ ID NO 49": {"biological_target": "T27, SEQ ID NO 49 (human)", "T27 construct": "The entry already carries the substitution", "T27 peptide": "Ac-WNSQKALLEQRRA-{cellulose membrane}", "assay": "alanine-substituted 61-73 peptide spots, chemiluminescence", "protocol": "as §1, §2, §4"}, "SEQ ID NO 50": {"biological_target": "T28, SEQ ID NO 50 (human)", "T28 construct": "The entry already carries the substitution", "T28 peptide": "Ac-WNSQKDLLAQRRA-{cellulose membrane}", "assay": "alanine-substituted 61-73 peptide spots, chemiluminescence", "protocol": "as §1, §2, §4"}, "SEQ ID NO 51": {"biological_target": "T29, SEQ ID NO 51 (human)", "T29 construct": "The entry already carries the substitution", "T29 peptide": "Ac-WNSQKDLLEQRAA-{cellulose membrane}", "assay": "alanine-substituted 61-73 peptide spots, chemiluminescence", "protocol": "as §1, §2, §4"}, "[2]": {"biological_target": "T30, 13-mer peptide, amino acids 65 to 77 of the HLA-DR β chain (DRB1*15011) (human)", "T30 peptide": "Ac-KDILEQARAAVDT-{cellulose membrane}", "assay": "SPOT 13-mer peptide array on cellulose membrane, chemiluminescence", "protocol": "as §1, §2"}}, "note": "cellulose membrane = peptide bound to a cellulose membrane through the C-terminus"}
{"binder": "HD4 (antibody, IgG1, V domains shown, also called antibody produced from the hybridoma HD4 (FERM BP-7771)) VH: EVQLLESGGGLVQPGGSLRLSCAASGFTFSSYAMTWVRQAPGKGLEWVSGISGGGDSTYYADSVKGRFTISRDNSKNTLYLQMNSLRAEDTAVYYCARDHGSGSYYPYWFDYWGQGTLVTVSS VL: not shown", "values": [{"measurement": "binding result", "setting": "[1]", "result": "binds"}]}
{"binder": "HD8 (antibody, IgG2, V domains shown, also called antibody produced from the hybridoma HD8 (FERM BP-7773)) VH: QVQLQHSGPGLVKPSQTLSLTCAISGDSVSSNSASWNWIRQSPSRGLEWLGRTYYRSKWYNDYAVSVKSRIVINPDTSKNQFSLQLNSVTPEDTAVYYCARENFYGSETCHKKYYCYGMDVWGQGTTVTVSS VL: AIQLTQSPSSLSASVGDRVTITCRASQGISSALAWYQQKPGKAPKLLIYDASSLESGVPSRFSGSGSGTDFTLTISSLQPEDFATYYCQQFNSFPLTFGGGTKVEIK", "values": [{"measurement": "binding result", "setting": "SEQ ID NO 24", "result": "binds"}, {"measurement": "binding result", "setting": "SEQ ID NO 25", "result": "binds"}, {"measurement": "binding result", "setting": "SEQ ID NO 26", "result": "binds"}, {"measurement": "binding result", "setting": "SEQ ID NO 27", "result": "binds"}, {"measurement": "binding result", "setting": "SEQ ID NO 28", "result": "binds"}, {"measurement": "binding result", "setting": "SEQ ID NO 29", "result": "binds"}, {"measurement": "binding result", "setting": "SEQ ID NO 30", "result": "binds"}, {"measurement": "binding result", "setting": "SEQ ID NO 31", "result": "binds"}, {"measurement": "binding result", "setting": "SEQ ID NO 32", "result": "binds"}, {"measurement": "binding result", "setting": "SEQ ID NO 33", "result": "binds"}, {"measurement": "binding result", "setting": "SEQ ID NO 34", "result": "binds"}, {"measurement": "binding result", "setting": "SEQ ID NO 35", "result": "binds"}, {"measurement": "binding result", "setting": "SEQ ID NO 36", "result": "binds"}, {"measurement": "binding result", "setting": "SEQ ID NO 37", "result": "binds"}, {"measurement": "binding result", "setting": "SEQ ID NO 38", "result": "binds"}, {"measurement": "binding result", "setting": "SEQ ID NO 39", "result": "binds"}, {"measurement": "binding result", "setting": "SEQ ID NO 40", "result": "binds"}, {"measurement": "binding result", "setting": "SEQ ID NO 41", "result": "binds"}, {"measurement": "binding result", "setting": "SEQ ID NO 42", "result": "binds"}, {"measurement": "binding result", "setting": "SEQ ID NO 43", "result": "binds"}, {"measurement": "binding result", "setting": "SEQ ID NO 44", "result": "binds"}, {"measurement": "binding result", "setting": "SEQ ID NO 45", "result": "binds"}, {"measurement": "binding result", "setting": "SEQ ID NO 46", "result": "binds"}, {"measurement": "binding result", "setting": "SEQ ID NO 47", "result": "binds"}, {"measurement": "binding result", "setting": "SEQ ID NO 48", "result": "no binding (tested: 1 µg/mL)"}, {"measurement": "binding result", "setting": "SEQ ID NO 49", "result": "no binding (tested: 1 µg/mL)"}, {"measurement": "binding result", "setting": "SEQ ID NO 50", "result": "no binding (tested: 1 µg/mL)"}, {"measurement": "binding result", "setting": "SEQ ID NO 51", "result": "no binding (tested: 1 µg/mL)"}, {"measurement": "binding result", "setting": "[1]", "result": "binds"}, {"measurement": "binding result", "setting": "[2]", "result": "binds"}]}
